Data: patent EP4674437A1

Columns and labels:
[1] = molecular target: Human DLL3 full-length protein (human); assay: cell-based or functional assay
[2] = molecular target: Human DLL3 full-length protein (human); assay: FACS on H1184 cells
[3] = molecular target: Cynomolgus monkey DLL3 full-length protein (cynomolgus monkey); assay: FACS on cynoDLL3/CHO-s cells

Substance: BI-764532 (antibody)
- IC50 (nM), cell killing caused by endocytosis of antibody (DT3C, DMS53/DLL3 cells) [1]: 3.27 nM
- Imax, cell killing caused by endocytosis of antibody (DT3C, DMS53/DLL3 cells) [1]: 86.5
- EC50 [2]: 3.94 nM
- Emax (geometric MFI) [2]: 1620
- EC50 [3]: 3.42 nM
- Emax (geometric MFI) [3]: 963
